From patent publication US9539306B2, “Anti-tumor drug, medicament, composition, and use thereof” (GENE SIGNAL INTERNATIONAL SA, priority 2007, dated 2017) come the findings set out here.

For test [1], the system named is CALU-6 cells (human lung carcinoma). The experiment in a line: Human non-small cell lung cancer (CALU-6) xenograft model, tumor growth. The test is classed as in vivo, Swiss Nude mice. The arrangement: Growth inhibition based on T/C ratio, T/C ratio (%): concentration or dose not given beside the values. As to conditions: for MTV (mean tumor volume): IP Q2DX8, 168A-T2 15 mg/kg, CDDP 5 mg/kg; for MRTV (mean relative tumor volume): ratio of MTV at time t to volume at D12; for Growth inhibition based on T/C ratio, T/C ratio (%): versus vehicle group 1. As to the method: CALU-6 cells were cultured as adherent cells in complete EMEM medium (Ref. CM1MEM18-01, batch No. 462502, Eurobio, France) 10% fetal calf serum (FCS; Ref. CVFSVF00-01, batch No. S13021, Eurobio, France) under a 37° C., 5% CO2 humidified atmosphere. They were amplified in 75 cm^2-flasks to reach 90×10^6 cells.
At D0, CALU-6 cells (human lung carcinoma) were collected from 75 cm^2-flasks by removing the medium and adding 3 ml of trypsine-EDTA (Ref. CEZTDA00-0U, batch No. 633920, Eurobio, France). After 5 min of incubation at 37° C., cells had detached from the plastic and the enzymatic reaction was stopped by adding 3 ml of EMEM medium containing 10% fetal calf serum. Cells were then centrifuged at 700 g for 5 min at room temperature. They were resuspended in serum-free EMEM culture medium. Cells were counted and viability assessment by Trypan Blue exclusion (Ref. CSTCOL03-0U, batch No. 434511, Eurobio, France). The number of viable CALU-6 cells was >99%. The number of cells was then adjusted to 25×10^6 cells/ml in serum-free medium.
Thirty healthy female Swiss Nude mice were anesthetized by IP injection of Ketamine-Xylazine (80 mg/kg-12 mg/kg; Ref. K-113, Sigma, France). CALU-6 cells 5×10^6 cells/mouse in 200 μl of serum-free medium) were then implanted subcutaneously in the right flank of each mouse.
At D12 post-implantation of the CALU-6 cells, the thirty mice were randomized into […]. Tumor volumes had reached 54 to 296 mm^3 and mean tumor volumes were not statistically different between groups after randomization.
Injections in groups 1, 2, 3 and 4 were performed according to the schedules Q2DX8, i.e. 1 quantity every two days, eight times.
Ketamine/Xylazine (80 mg/kg-12 mg/kg; Ref. K-113, Sigma, France) was used to anaesthetize the animals before sacrifice by cervical dislocation. For all animals, the tumor size was measured twice a week with calipers. The tumor volume (mm^3) was measured according to the formula: (length×width^2)/2.
• Tumor growth curves were drawn using the mean tumor volumes (MTV), • Mean Relative tumor volume (MRTV) was calculated as the ratio between the MTV at time t and the volume at the time of injection (t=D12), • Tumor growth inhibition (T/C, %) was evaluated as the ratio of the median tumor volumes of treated groups versus vehicle group.
Statistical analyses of tumor volumes (TV), time to reach ‘TV’, tumor-doubling time (DT), relative tumor volume (RTV) and tumor growth inhibition (T/C) were performed for all groups. Data are expressed as mean±SD. Groups of data were normally distributed. Univariate analysis were performed to assess differences between groups. Statistical significance was then determined using the Student's t test. A P<0.05 was considered as statistically significant. The Statistical analysis was performed using XLSTAT (Addinsoft, France).
Background: Xenograft models place foreign cells or tissue in a host animal.

In test [2] the test system is HUVEC cells. The experiment in a line: Inhibition of endothelial cell proliferation in vitro (MTT). It counts as cell-based, human. To be noted: comparison with literature (Binetruy-Tournaire et al.). How it is done: HUVEC cells were cultured to confluency in complete EGM2-MV medium (Cambrex) at 37° C. and in 5% CO2 humidified atmosphere. Cells were then collected by trypsine-EDTA digestion (Versene, Eurobio). After 5 min, the enzymatic reaction was stopped by adding 3 ml of the culture medium containing 5% FCS. Cells were then centrifuged at 220 g for 10 min at room temperature, washed twice with 5 ml of culture medium, suspended in complete culture medium, counted and adjusted to 50 000 cells/ml. One hundred μL per well were then distributed to a 96-well cell culture grade micro-plate (5 000 cells/well) and incubated with different concentrations of the purified protein 168A-T2 in Tris-HCl 20 mM buffer (pH 8), containing 150 mM NaCl and urea 2M; this buffer was used as control.
After 42 hrs at 37° C., cell proliferation was measured using thiazolyl blue tetrazolium bromide (MTT) method. Briefly, MTT (Sigma) was dissolved in PBS at 5 mg/ml, the solution was filtered (0.22 μm) and 10 μl were added to each well of the 96-well micro-plates. […] The optical density (OD) at 570 nm was then measured using μQuant micro-plate reader (Bio-Tek Instrument gmbh, Colmar, France) coupled to the KC4 (Bio-Tek) software. […]

In test [3] the test system is kidney cancer line (BizX). The test can be described thus: Inhibition of kidney cancer cell line proliferation in vitro (MTT). The test is classed as cell-based. To be noted: 48 hours, maximum over tested concentrations. How it is done: (§1) BizX cell preparation of 50000 cells/mL was prepared in complete medium. In a 96 wells plate, […] of the cell preparation was distributed in each well and then incubated with different concentrations of 168A-T2 (each concentration was tested in triplicate). After 48 hours of incubation at 37° C., […] of MTT ([…] in water) were added in each well. After 3 hours of incubation at 37° C., the culture medium was eliminated and […] of DMSO were added to solubilize MMT crystals. The optical density (OD) at 570 nm was then measured using μQuant micro-plate reader (Bio-Tek Instrument gmbh, Colmar, France) coupled to the KC4 (Bio-Tek) software. The OD was corrected by subtracting blank-well OD values (the OD values obtained from wells without cells), and the inhibition of cell proliferation was measured relative to control (OD obtained from wells with untreated kidney tumor cells representing the maximal proliferative response, i.e. 100%).

In test [4] the test system is HUVEC. The test can be described thus: Migration of human endothelial cells (wound assay). The test is classed as cell-based. As to conditions: 12, 17, 23 μg/mL (0.7, 1, 1.35 μM); 18 hours. As to the method: Cell migration was tested by the wound assay described by Sato and Rifkin (J Cell Biol. 1988; 107:1199) with few modifications. HUVEC grown in growth medium EGM-2MV (Cambrex) were seeded in 24-well plates at 80 000 cells per well in 500 μL of growth medium and grown to confluence at 37° C. in a humidified atmosphere containing 5% CO2. Cells were scrapped with a plastic tip on one line only. After wounding, the culture medium was changed for fresh medium (control, FIG. 3a) or fresh medium supplemented with: • FIG. 3b: 168A-T2 12 μg/mL (0.7 μM) • FIG. 3c: 168A-T2 17 μg/mL (1 μM) • FIG. 3d: […] 23 μg/mL (1.35 μM)
After 18 hours of culture, cells were observed and photographed under the inverted microscope (Analysis, Olympus, Rungis, France).

For test [5], the system named is lung cancer line (Calu6). The test can be described thus: Inhibition of lung cancer cell line proliferation in vitro (MTT). It counts as cell-based, human. To be noted: 48 hours, maximum over tested concentrations. How it is done:
as §1
Calu6 cells were cultured and treated as described in example 5.

The subject of test [6] is HUVEC. The test can be described thus: In vitro angiogenesis of HUVEC induced by FGF2 and VEGF on Matrigel. The test is classed as cell-based, human. As to conditions: 3.5, 6.9, 13.6 μg/mL (0.2, 0.4, 0.8 μM). As to the method:
The purified proteins 168A-T2 was tested in vitro on angiogenesis of HUVEC induced by FGF2 and VEGF on Matrigel.
24 wells plates were prepared with 250 μL of BD Matrigel™/well and then incubated 30 minutes in incubator. HUVEC cells were then prepared as described in example 2 and 70 000 cells (in 0.5 mL) were seeded per well and incubated with different concentrations of the purified protein 168A-T2, in Tris-HCl 20 mM buffer (pH 8), containing 150 mM NaCl and urea 2M; this buffer was used as control: • FIG. 2a: Control (Buffer Urea 2M) • FIG. 2b: 168A-T2 3.5 μg/mL (0.2 μM) • FIG. 2c: 168A-T2 6.9 μg/mL (0.4 μM) • FIG. 2d: 168A-T2 13.6 μg/mL (0.8 μM)

With `N.N.[Cl][Pt][Cl]` [Cisplatin, cis-diamineplatinum(II) dichloride, reference compound], the “MTV (mean tumor volume)” value in test [1] (D12 (start of treatment)) is listed as 142.60 mm^3; in test [1] (D14), 351.15 mm^3; in test [1] (D16), 291.29 mm^3; in test [1] (D18) it was 329.18 mm^3; in test [1] (D20), 386.84 mm^3; in test [1] (D22), 470.59 mm^3. For the same molecule, the “MTV (mean tumor volume)” value in test [1] (D24) was 595.00 mm^3; in test [1] (D26) it was 527.98 mm^3; in test [1] (D28) it was 742.44 mm^3.

B1: 168A-T2: fragment of the extracellular domain of protein 168A, SEQ ID NO:4 (108 amino acids), recombinant from E. coli, 18 kD (protein, listed as Homo sapiens)
chain: MAFDVSWFAVHSFGLDKAPVLLSSLDRKGIVTTSRRDWKSDLSLERVSVLEFLLQVHGSEDQDFGNYYCSVTPWVKSPTGSWQKEAEIHSKPVFITVKMDVLNAFKYP
As to B1, the “potency relative to anti-VEGF mAb and/or VEGF receptor (KDR)-based identified peptides” value in test [2] is given as “at least 600 fold”. For the same molecule, the “inhibition of proliferation of kidney cancer line (BizX)” value in test [3] is recorded as “up to 20%”. Moreover, the “MRTV (mean relative tumor volume)” value in test [1] (D12 (reference time)) is recorded as 1; in test [1] (D14), 1.15; in test [1] (D16) it was 1.93; in test [1] (D18) it was 2.08; in test [1] (D20), 2.60; in test [1] (D22) it was 3.47. In addition, the “MRTV (mean relative tumor volume)” value is reported as 4.83 in test [1] (D24), 4.14 in test [1] (D26) and 4.51 in test [1] (D28). Besides, the “MTV (mean tumor volume)” value is recorded as 159.22 mm^3 in test [1] (D12 (start of treatment)); 181.94 mm^3 in test [1] (D14); 264.20 mm^3 in test [1] (D16); 322.99 mm^3 in test [1] (D18); 391.90 mm^3 in test [1] (D20); 485.42 mm^3 in test [1] (D22). The “MTV (mean tumor volume)” value in test [1] (D24) is 642.24 mm^3; in test [1] (D26) it was 529.95 mm^3; in test [1] (D28), 615.96 mm^3. The “Growth inhibition based on T/C ratio, T/C ratio (%)” value in test [1] (D14) worked out at 37%; in test [1] (D16) it was 39%; in test [1] (D18), 17%; in test [1] (D20), 29%; in test [1] (D22), 16%; in test [1] (D24), 15%. The “Growth inhibition based on T/C ratio, T/C ratio (%)” value in test [1] (D26) and in test [1] (D28) was 45% throughout. In addition, the “inhibition of human endothelial cell migration” value in test [4] is on record as “inhibited human endothelial cells migration in a dose dependent manner”. In test [5], the “inhibition of proliferation of lung cancer line (Calu6)” value is “up to 40%”. Also, in test [6], the “inhibition of in vitro angiogenesis (capillary tube formation)” value is on record as “inhibited in vitro angiogenesis in a dose-dependent manner”.
